Laboratory results as given in the DeepSol protein solubility set.

assay: soluble on expression in E. coli; label from the status in PepcDB or PDB records

| Sequence | soluble on expression in E. coli |
| --- | --- |
| MGSDKIHHHHHHMTKDQQNIERGSVINVEILNAAHGGQGIAKYDGRVIFVKGAFPGDRLSANITHVKKKFARATIASIEMPSPLRMQQRCLAAANGAGCCDFGEFDPEIEGRYKADLVLEQLERLGKVSQPPTCEVVSFGSPTQWRTRMRLGVDAQGRAGGFASQSREVVSGVPCSQGVMGLLDGIVGAEQNVLRFTPGSQVVVVCDDLGQRTVVETQPAPRGKRTESMVKVVEGTGKVSQVVDGVTFELPATGFWQSHKDAAQAYADTIREWFGSLIIRNTDSSLVAWDLYGGCGSFASAILSAVDNHGVVHCVESAPAAVSAGKRALSQLVEDQKIVFHTETVERAMNQLPAPTLVVLDPPRVGAGAETVRAIAQSGPQAAIHIGCDPATFARDIAEWSRNGFILEKLRVFDAFPGTHHCETIGLLTKKN | not soluble |
| MGSDKIHHHHHHMSIDIDIIKARAKNEYRLSKVRGEAMISVRIPGGILPAHLLTVARDIAETWGNGQIHLTTRQKLAMPGIRYEDIDNVNAALEPFLREIEIELCDVQVEDTKAGYLAIGGRNIVACQGNRICQKANTDTTGLSRRLEKLVYPSPYHLKTVIVGCPNDCAKASMADLGIIGVAKMRFTADRCIGCGACVKACSHHAVGCLALKNGKAVKEESACIGCGECVLACPTLAWQRKPDQLWQVRLGGRTSKKTPRVGKLFLNWVTEDVIKQVIVNLYEFEKEMLGGKPIYLHMGHLIDKGGYLRFKERVLRGVQLNPEAMVAERIYWAEDESVARMHLKPAGH | not soluble |
| MANTLFDKIWDAHVVQKVEEGPTQLYIDRLYCHEVTSPQAFAGLRARGVKVFRPDHVYCMPDHNTPTHDQDKPIEDPVSKTQVDTLAKNAKDFGLAHFGMMDKRNGIIHVVGPERGLTLPGMTIVCGDSHTSTHGAMGAVAFGIGTSEVEMVLASQCILQSRPKT | not soluble |
| GMLKSKIKEEYVQMDQVDWKPFPAAFSTGGIRWKLLHVSPEMGSWTAIFDCPAGSSFAAHVHVGPGEYFLTKGKMDVRGGKAAGGDTAIAPGYGYESANARHDKTEFPVASEFYMSFLGPLTFVKPDGSPIAVIGWEDAQGAWAA | soluble |
| MGSDKIHHHHHHMSADTLFPKLDIPATIAAGPGPGNTDARVLAAFSGAGLADHMHGDVLRGMVECKLMLRRIWGTDNIHTFGVAGTGWSGLDVMFSAVMPGDKVVVFTNGTFSGIDGLTVRMKAATAEELAANPLDPRPASVVIVDIPHGQSVTGEIVETALAEHKPKWAAMAHWETGSGRINDIAGFSAACERHDVMGLVDAVSSLGVEDFRIDDFPGVHGWASCPQKGICCLPLTYAPVSFTDRYIQTLRATGTRSFVHHPILEARHWGVIEGKDVDKGTYHRTHSAYAVAAFHEALRITLQQGVANRAKDYAYHEAALRRAVEALGCEVTSNMTSLVVLNLPGDLRGREMELVQNCRARNFGIWPTLSAPVQVRIGILNLLSRAAVTDIVTRFAEAIRELGGAGDEATALAALDAHYDNAIAAE | not soluble |
| AHHHHHHGSNAVEIISREISPTLDIQTKILEYMTDFFVKEGFKWLLPVIISPITDPLWPDPAGEGMEPAEVEIYGVKMRLTHSMILHKQLAIAMGLKKIFVLSPNIRLESRQKDDGRHAYEFTQLDFEVERAKMEDIMRLIERLVYGLFRKAEEWTGREFPKTKRFEVFEYSEVLEEFGSDEKASQEMEEPFWIINIPREFYDREVDGFWRNYDLILPYGYGEVASGGEREWEYEKIVAKIRKAGLNEDSFRPYLEIAKAGKLKPSAGAGIGVERLVRFIVGAKHIAEVQPFPRIPGIPAVI | soluble |
| MSLAAELFATRPDTHARERPEAVALIDRDRPVTHAALRAGVLDLAGGLAALGVCRGERVALWLPNCAHWVTMFLACARLGALTLAVNTRFRAQELGDILGRGQADWLVYWPGFKGIDFAGILAAVPPAARARLRGAIVVDGSGAQATPGPAGLAAHALAALHGPAPLPAPNAGVLCFTTSGTTSLPKFVLHDQDTLLRHGDAIARSYGYDDDSRILASAPFCGAFGFATLVGALARGVPVICEPAFDAARSVAAVRRHRVTHTYANNEALVQMFRLGERADFATARLFGFASFAPALGDLLPLARAQGVPLTGLYGSSELIALVAAQPREPADGDVSVRYEPGGALIHPEARVRARDPQDGRILADGESGEIEILAPSLMRGYLDNPQASAGALTDDGYFRTGDLGYTLGTRQFVFQTRMGDSLRLSGFLVNPAEIEQAVEALPGIRACQVVGATRDGKTVPYAFVLLDAGASPDPPGWMAACRQGMAGFKVPAGFQVLEAFPVVESANSAKIQKHKLREQAEALLAAAEGHHHHHH | not soluble |
| MAHHHHHHMPSSFAAQQQGSCNPHQNPVRSHKGGYLRCPFNISSSYAELAERRVHEDLACGRSRAAVADKDGVKAFPSTGPQVDSDGIDGDFAGRPWSRAGVGANRLSGKEKRTQQEQAEHIYGRGTLAEDDGAVAATGAVSVTSDLLQENMFAVDVRERAALQKVVPRAVREQVKRRKLEDVKKERLSPGNHCRHGCAPLHTDRAAGEEAGEDDDVESRSEDHMAGPPRERTRFSSPAAGSSRVGAPPLPHSAGSKDHPSGGSSSANVGAERSPRSGPSDASAQRPPLREPTPAPVSAKSNCPKNRMQMLDGLRASALMNKKGRR | soluble |
| MDWRWWKIAYEELTEKQQRFVDKYITTFNATESAKQAGYSEKSAYSQGQRLLKNVEIQKAMKERFLEAKDTKGDRIQDVAETLEQDTSIARGEIQISEFKETDMLTGQVVIHTKREYTPSHEEQGRARDRIYKVNGAYSEKRELEHSGTVVFANEDNIPD | not soluble |
| MRGSHHHHHHTDPNSPLDEENLTQENQDRGTHVDLGLASANVDFAFSLYKQLVLKAPDKNVIFSPLSISTALAFLSLGAHNTTLTEILKGLKFNLTETSEAEIHQSFQHLLRTLNQSSDELQLSMGNAMFVKEQLSLLDRFTEDAKRLYGSEAFATDFQDSAAAKKLINDYVKNGTRGKITDLIKDLDSQTMMVLVNYIFFKAKWEMPFDPQDTHQSRFYLSKKKWVMVPMMSLHHLTIPYFRDEELSCTVVELKYTGNASALFILPDQDKMEEVEAMLLPETLKRWRDSLEFREIGELYLPKFSISRDYNLNDILLQLGIEEAFTSKADLSGITGARNLAVSQVVHKAVLDVFEEGTEASGTTAVKITLLSALVETRTITRFNRPFLMIIVPTDTQNIFFMSKVTNPKQA | soluble |
| MHHRHLQVLRTDASGMPLEWIGYQEAAKLYYLEQVAYGCGSILFRLRGGINAKTGQRSRIEVNSIVATFGHANSGYKVDMGYVPPLNNAALFRRDGHICLYCGNLFRHSELSRDHIQPTSRGGSDTWNNVVTACKRCNNHKAGRTPEEAKMQLLAIPFTPTHAEYIYLQGRRVLADQMEFLKAHFPRKSPLHQRLSLEHHHHHH | not soluble |
| MSLEDHAEELASDLGVDKEEVTRDLENLVNYSVPMDEAKQSLRRKYGDGSSGGDSTPSSKAINEVSTEDSNVTVTAVVLTSGRRSIQYNGEQHVIREGELADETGKISYTAWDGFSGDLQPGQTVQLGNAGVREWDGQPELNLGDSTDPEVVDETLDIDYDVGGRAALQDLAPGDRGITVEVQVLECEQKVIDGRDGETTILSGVLGDESGRLPFTDWDPHDEIEEGASVRLDETFVREFRGAPSVNVSEFSAVTALDRTVGVTEDAPRLSVREAVESGGLFDVELAGNVIEVRDGSGLIERCPECGRVIQNGQCRSHGAVEGEDDLRTKAILDDGTDTVTAVLDDELTARVYGGDLDDAREHARDAMDKEVVAERISDRIVGREYVVRGSLSVDEYGANLTASTFAEADDDPATRAQALLQEADTLEHHHHHH | soluble |
| MKQASAIPQPKTYGPLKNLPHLEKEQLSQSLWRIADELGPIFRFDFPGVSSVFVSGHNLVAEVCDEKRFDKNLGKGLQKVREFGGDGLFTSWTHEPNWQKAHRILLPSFSQKAMKGYHSMMLDIATQLIQKWSRLNPNEEIDVADDMTRLTLDTIGLCGFNYRFNSFYRDSQHPFITSMLRALKEAMNQSKRLGLQDKMMVKTKLQFQKDIEVMNSLVDRMIAERKANPDENIKDLLSLMLYAKDPVTGETLDDENIRYQIITFLIAGHETTSGLLSFAIYCLLTHPEKLKKAQEEADRVLTDDTPEYKQIQQLKYIRMVLNETLRLYPTAPAFSLYAKEDTVLGGEYPISKGQPVTVLIPKLHRDQNAWGPDAEDFRPERFEDPSSIPHHAYKPFGNGQRACIGMQFALQEATMVLGLVLKHFELINHTGYELKIKEALTIKPDDFKITVKPRKTAAINVQRKEQADIKAETKPKETKPKHGTPLLVLFGSNLGTAEGIAGELAAQGRQMGFTAETAPLDDYIGKLPEEGAVVIVTASYNGAPPDNAAGFVEWLKELEEGQLKGVSYAVFGCGNRSWASTYQRIPRLIDDMMKAKGASRLTAIGEGDAADDFESHRESWENRFWKETMDAFDINEIAQKEDRPSLSITFLSEATETPVAKAYGAFEGIVLENRELQTAASTRSTRHIELEIPAGKTYKEGDHIGILPKNSRELVQRVLSRFGLQSNHVIKVSGSAHMAHLPMDRPIKVVDLLSSYVELQEPASRLQLRELASYTVCPPHQKELEQLVSDDGIYKEQVLAKRLTMLDFLEDYPACEMPFERFLALLPSLKPRYYSISSSPKVHANIVSMTVGVVKASAWSGRGEYRGVASNYLAELNTGDAAACFIRTPQSGFQMPNDPETPMIMVGPGTGIAPFRGFIQARSVLKKEGSTLGEALLYFGCRRPDHDDLYREELDQAEQDGLVTIRRCYSRVENEPKGYVQHLLKQDTQKLMTLIEKGAHIYVCGDGSQMAPDVERTLRLAYEAEKAASQEESAVWLQKLQDQRRYVKDVW | soluble |
| MEEPEEPADSGQSLVPVYIYSPEYVSMCDSLAKIPKRASMVHSLIEAYALHKQMRIVKPKVASMEEMATFHTDAYLQHLQKVSQEGDDDHPDSIEYGLGYDCPATEGIFDYAAAIGGATITAAQCLIDGMCKVAINWSGGWHHAKKDEASGFCYLNDAVLGILRLRRKFERILYVDLDLHHGDGVEDAFSFTSKVMTVSLHKFSPGFFPGTGDVSDVGLGKGRYYSVNVPIQDGIQDEKYYQICESVLKEVYQAFNPKAVVLQLGADTIAGDPMCSFNMTPVGIGKCLKYILQWQLATLILGGGGYNLANTARCWTYLTGVILGKTLSSEIPDHEFFTAYGPDYVLEITPSCRPDRNEPHRIQQILNYIKGNLKHVVIEGRGSHHHHHH | soluble |
| MAERGGDGGESERFNPGELRMAQQQALRFRGPAPPPNAVMRGPPPLMRPPPPFGMMRGPPPPPRPPFGRPPFDPNMPPMPPPGGIPPPMGPPHLQRPPFMPPPMSSMPPPPGMMFPPGMPPVTAPGTPALPPTEEIWVENKTPDGKVYYYNARTRESAWTKPDGVKVIQQSELTPMLAAQAQVQAQAQAQAQAQAQAQAQAQAQAQAQAQAQAQAQAQAQAQAQAQAQAQAQAQAQAQAQAQVQAQVQAQVQAQAVGASTPTTSSPAPAVSTSTSSSTPSSTTSTTTTATSVAQTVSTPTTQDQTPSSAVSVATPTVSVSTPAPTATPVQTVPQPHPQTLPPAVPHSVPQPTTAIPAFPPVMVPPFRVPLPGMPIPLPGVLPGMAPPIVPMIHPQVAIAASPATLAGATAVSEWTEYKTADGKTYYYNNRTLESTWEKPQELKEKEKLEEKIKEPIKEPSEEPLPMETEEEDPKEEPIKEIKEEPKEEEMTEEEKAAQKAKPVATAPIPGTPWCVVWTGDERVFFYNPTTRLSMWDRPDDLIGRADVDKIIQEPPHKKGMEELKKLRHPTPTMLSIQKWQFSMSAIKEEQELMEEINEDEPVKAKKRKRDDNKDIDSEKEAAMEAEIKAARERAIVPLEARMKQFKDMLLERGVSAFSTWEKELHKIVFDPRYLLLNPKERKQVFDQYVKTRAEEERREKKNKIMQAKEDFKKMMEEAKFNPRATFSEFAAKHAKDSRFKAIEKMKDREALFNEFVAAARKKEKEDSKTRGEKIKSDFFELLSNHHLDSQSRWSKVKDKVESDPRYKAVDSSSMREDLFKQYIEKIAKNLDSEKEKELERQARIEASLREREREVQKARSEQTKEIDREREQHKREEAIQNFKALLSDMVRSSDVSWSDTRRTLRKDHRWESGSLLEREEKEKLFNEHIEALTKKKREHFRQLLDETSAITLTSTWKEVKKIIKEDPRCIKFSSSDRKKQREFEEYIRDKYITAKADFRTLLKETKFITYRSKKLIQESDQHLKDVEKILQNDKRYLVLDCVPEERRKLIVAYVDDLDRRGPPPPPTASEPTRRSTK | soluble |
